Results from CN1827647A (SHANGHAI ZHANGJIANG BIO TECH C, dated 2006).

Biological target: T1, EGFR蛋白 (表皮生长因子受体, 购自晶美生物公司) (UniProt P00533 25-645, limits assumed)
T1 construct: Bought protein used as the coating antigen; also called c-erbB1/Her1
Experiment: Scatchard analysis; concluding sentence on the result

Kd: ~1 nM
B1: 3C6单克隆抗体 (重组人源抗EGFR单克隆抗体, produced by CHO cell line 3C6) (antibody, V domains shown)
VH: QVQLKESGPGLVAPSQSLSITCTVSGFSLTNYGVHWVRQPPGKGLEWLGVIWSGGNTDYNTPFTSRLNISKDNSKSQVFLRMYSLQTDDTARYYCARALTYYDYEFAYWGQGTLVTVSS
VL: not shown
